Reference: article PMC2900151 (Biochemistry, 2010)

Target: T1, soluble recombinant human FGFR3c human-IgG chimeric protein (human, UniProt P22607 23-375)
T1 sequence (looked up): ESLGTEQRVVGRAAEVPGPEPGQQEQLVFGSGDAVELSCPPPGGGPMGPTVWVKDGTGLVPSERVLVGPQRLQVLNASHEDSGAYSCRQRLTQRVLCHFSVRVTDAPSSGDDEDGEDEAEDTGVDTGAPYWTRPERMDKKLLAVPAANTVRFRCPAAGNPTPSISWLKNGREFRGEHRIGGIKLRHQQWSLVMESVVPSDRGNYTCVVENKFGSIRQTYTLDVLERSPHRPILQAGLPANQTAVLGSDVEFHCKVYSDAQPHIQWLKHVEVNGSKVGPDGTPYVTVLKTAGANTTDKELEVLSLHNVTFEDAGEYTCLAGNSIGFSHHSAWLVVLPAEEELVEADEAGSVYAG
Assay: ligand and carbohydrate engagement

- binding result: binds
B1: recombinant human FGF18 (ligand, UniProt O76093 28-207, looked up)
chain: EENVDFRIHVENQTRARDDVSRKQLRLYQLYSRTSGKHIQVLGRRISARGEDGDKYAQLLVETDTFGSQVRIKGKETEFYLCMNRKGKLVGKPDGTSKECVFIEKVLENNYTALMSAKYSGWYVGFTKKGRPRKGPKTRENQQDVHFMKRYPKGQPELQKPFKYTTVTKRSRRIRPTHPA
